B1: TraR-His (GntR-type transcriptional repressor TraR of plasmid pSVH1) (natural protein, Streptomyces venezuelae (plasmid pSVH1), UniProt Q3LAJ7 1-252, looked up)
chain: MTSTQSEKRVTARSIADDLRGKIRSGQLLPGSVLPTTKALAEEHGVSSKTVSAGIDLLKLEGLVVGEQGGRRRVRADRPITWNLTRFERGARRDSAVMDDWSTAISEAGRTPEQHVSVSRETANSDIAGWLQVPVGDDVVKRVRMRTVDGRPFQLSTSYFPKHVAVGTLLEEPGDVAVPGGILSHIGHPQLRVRDEISVRMPSPEESQELALPPGTPVAQHVRVGYGETGPVRVMVTIAPGDRHTLVYELEV
B2: SpdB2-His (SpdB2 of plasmid pSVH1) (natural protein, Streptomyces venezuelae (plasmid pSVH1), UniProt Q3LAJ4 1-409, looked up)
chain: MSTYREEKRLDDQLRAEQKLRNEQLRAEQAREDRRLELEATQQRDAARAEEKRKDAEAKRRQEQAEKKARAAEQQAKKAAAAAKRAKLVRWLKANPATLFVGFVMVASIVPALLSQIGALTGATVAAPMAGLLAAMLEGGAWAITFMGKQAEDAGREPRKYRIGTWAVATVAAAVNFWHGLEAYGEHPWVAFVLGASSLFAIYIWDLKTHGSHGKTKEQKQAEKARRAHVSARRKHHPEIVEQAVKLQAALPYGVLDDESAFAAAWRIHTGAEPGLSAQLYATATEAVLQLGAAFELGDNVRDELLETGFKAARLNPFAELAQVPGSQAGLEENAPQGPASALRPDAPEGKSPEELEALLPDAVAAAAELVAEGRQISAHGLAKKLQIRRVDAALLRDRVIEQRRLHVA

What was measured:
[1] = molecular target: the molecule itself; experiment: cross-linking
[2] = molecular target: the molecule itself; experiment: native gel or EMSA

| Protein | stoichiometry N [1] | binding result [2] |
| --- | --- | --- |
| B1 | 2 |  |
| B2 |  | binds |

— publication PMC4447253 (mBio, 2015)
